Results published in the Immune Epitope Database (IEDB).
pKd: −log10 of the molar value.

What was measured:
[1] = target: HLA-A*11:01; experiment: IEDB peptide-MHC binding, purified MHC/direct/fluorescence; filed as Kd, often an IC50 or EC50 that approximates it; ≥ and ≤ were set here for values at or beyond the usual limits of such assays
[2] = target: HLA-A*31:01; experiment: IEDB peptide-MHC binding, purified MHC/competitive/fluorescence; filed as Kd, often an IC50 or EC50 that approximates it; ≥ and ≤ were set here for values at or beyond the usual limits of such assays
[3] = target: HLA-A*24:03; experiment: as above
[4] = target: HLA-A*02:01; experiment: as above; settings: source organism: Mus musculus
[5] = target: HLA-A*03:01; experiment: as above
[6] = target: HLA-A*26:01; experiment: as above
[7] = target: HLA-B*15:17; experiment: as above
[8] = target: HLA-B*18:01; experiment: as above; settings: source organism: Mus musculus
[9] = target: HLA-B*27:03; experiment: as above
[10] = target: HLA-B*39:01; experiment: as above
[11] = target: HLA-B*51:01; experiment: as above
[12] = target: HLA-B*57:01; experiment: as above
[13] = target: HLA-A*01:01; experiment: IEDB peptide-MHC binding, purified MHC/direct/fluorescence; filed as Kd, often an IC50 or EC50 that approximates it; ≥ and ≤ were set here for values at or beyond the usual limits of such assays
[14] = target: HLA-A*29:02; experiment: as above; settings: source organism: Mammarenavirus machupoense
[15] = target: HLA-A*68:02; experiment: as above
[16] = target: HLA-A*69:01; experiment: IEDB peptide-MHC binding, purified MHC/competitive/fluorescence; filed as Kd, often an IC50 or EC50 that approximates it; ≥ and ≤ were set here for values at or beyond the usual limits of such assays; settings: source organism: Orthohantavirus tulaense
[17] = target: HLA-B*46:01; experiment: as above; settings: source organism: Orthohantavirus tulaense
[18] = target: HLA-A*03:01; experiment: IEDB peptide-MHC binding, purified MHC/direct/fluorescence; filed as Kd, often an IC50 or EC50 that approximates it; ≥ and ≤ were set here for values at or beyond the usual limits of such assays
[19] = target: HLA-A*03:01; experiment: IEDB peptide-MHC binding, purified MHC/competitive/radioactivity; filed as Kd, often an IC50 or EC50 that approximates it; ≥ and ≤ were set here for values at or beyond the usual limits of such assays; settings: source organism: Vaccinia virus WR
[20] = target: HLA-A*11:01; experiment: as above; settings: source organism: Vaccinia virus WR
[21] = target: HLA-A*30:01; experiment: as above; settings: source organism: Vaccinia virus WR
[22] = target: HLA-A*31:01; experiment: as above; settings: source organism: Vaccinia virus WR
[23] = target: HLA-A*32:01; experiment: as above; settings: source organism: Vaccinia virus WR
[24] = target: HLA-A*33:01; experiment: as above; settings: source organism: Vaccinia virus WR
[25] = target: HLA-A*68:01; experiment: as above; settings: source organism: Vaccinia virus WR
[26] = target: HLA-B*08:01; experiment: as above; settings: source organism: Vaccinia virus WR
[27] = target: HLA-B*15:01; experiment: as above; settings: source organism: Vaccinia virus WR
[28] = target: HLA-B*15:03; experiment: as above; settings: source organism: Vaccinia virus WR
[29] = target: HLA-A*02:01; experiment: IEDB peptide-MHC binding, purified MHC/direct/fluorescence; filed as Kd, often an IC50 or EC50 that approximates it; ≥ and ≤ were set here for values at or beyond the usual limits of such assays; settings: source organism: Orthohantavirus seoulense
[30] = target: HLA-A*02:12; experiment: as above; settings: source organism: Limestone Canyon virus
[31] = target: HLA-A*31:01; experiment: as above; settings: source organism: Orthohantavirus seoulense
[32] = target: HLA-A*69:01; experiment: as above; settings: source organism: Orthohantavirus seoulense
[33] = target: HLA-B*07:02; experiment: as above; settings: source organism: Orthohantavirus seoulense
[34] = target: HLA-B*08:01; experiment: as above; settings: source organism: Orthohantavirus seoulense
[35] = target: HLA-B*15:01; experiment: as above; settings: source organism: Orthohantavirus seoulense
[36] = target: HLA-B*18:01; experiment: as above; settings: source organism: Orthohantavirus seoulense
[37] = target: HLA-B*27:05; experiment: as above; settings: source organism: Orthohantavirus seoulense
[38] = target: HLA-B*40:01; experiment: as above; settings: source organism: Orthohantavirus seoulense
[39] = target: HLA-B*44:02; experiment: as above; settings: source organism: Orthohantavirus seoulense
[40] = target: HLA-B*46:01; experiment: as above; settings: source organism: Orthohantavirus seoulense
[41] = target: HLA-B*48:01; experiment: as above; settings: source organism: Orthohantavirus seoulense
[42] = target: HLA-B*57:01; experiment: as above; settings: source organism: Orthohantavirus seoulense
[43] = target: HLA-B*58:01; experiment: as above; settings: source organism: Orthohantavirus seoulense
[44] = target: HLA-A*30:01; experiment: IEDB peptide-MHC binding, purified MHC/competitive/fluorescence; filed as Kd, often an IC50 or EC50 that approximates it; ≥ and ≤ were set here for values at or beyond the usual limits of such assays; settings: source organism: Nostoc punctiforme PCC 73102
[45] = source organism: Yellow fever virus
[46] = source organism: Orthohantavirus tulaense
[47] = source organism: Influenza A virus (A/chicken/Viet Nam/DT-015/2004(H5N1))
[48] = source organism: Orthohantavirus seoulense
[49] = source organism: dengue virus type 1
[50] = source organism: West Nile virus

## ALNTITNLK
[1]; [45]
  pKd: 8.07
[2]; [45]
  pKd: 7.38

## AWQRTLKWF
[3]; source organism: Escherichia coli str. K-12 substr. MG1655
  pKd: 6.96

## CLVSGLSSL
[4]
  pKd: 8.43
[5]; source organism: Mus musculus
  pKd: ≤ 4.70
[3]; source organism: Mus musculus
  pKd: ≤ 4.70
[6]; source organism: Mus musculus
  pKd: ≤ 4.70
[7]; source organism: Mus musculus
  pKd: ≤ 4.70
[8]
  pKd: ≤ 4.70
[9]; source organism: Mus musculus
  pKd: ≤ 4.70
[10]; source organism: Mus musculus
  pKd: ≤ 4.70
[11]; source organism: Mus musculus
  pKd: ≤ 4.70
[12]; source organism: Mus musculus
  pKd: ≤ 4.70

## ESSINISGY
[13]; source organism: Mammarenavirus juninense
  pKd: 6.46
[14]
  pKd: 6.64

## FMSRKLHRY
[13]; source organism: Orthohantavirus negraense
  pKd: 8.02
[15]; [46]
  pKd: ≤ 4.70
[5]; [46]
  pKd: 5.10
[6]; [46]
  pKd: ≤ 4.70
[16]
  pKd: ≤ 4.70
[7]; [46]
  pKd: ≤ 4.70
[9]; [46]
  pKd: ≤ 4.70
[10]; [46]
  pKd: ≤ 4.70
[17]
  pKd: ≤ 4.70
[11]; [46]
  pKd: ≤ 4.70
[12]; [46]
  pKd: ≤ 4.70

## GIPLYDAIK
[18]; [47]
  pKd: ≤ 4.70
[1]; [47]
  pKd: 5.11
[2]; source organism: Influenza A virus (A/X-31(H3N2))
  pKd: ≤ 4.70

## KAFNHASVK
[19]
  pKd: 8.21
[20]
  pKd: 8.03
[21]
  pKd: 7.46
[22]
  pKd: 7.53
[23]
  pKd: 5.44
[24]
  pKd: ≤ 4.32
[25]
  pKd: 7.75
[26]
  pKd: 6.12
[27]
  pKd: 6.34
[28]
  pKd: 6.55

## KMFTFWYMR
[18]; source organism: Fowlpox virus
  pKd: 6.41
[1]; source organism: Fowlpox virus
  pKd: 8.20
[2]; source organism: Fowlpox virus
  pKd: 8.86

## KPKHLYVSM
[13]; [48]
  pKd: ≤ 4.70
[29]
  pKd: ≤ 4.70
[30]
  pKd: ≤ 4.70
[18]; [48]
  pKd: ≤ 4.70
[1]; [48]
  pKd: ≤ 4.70
[31]
  pKd: ≤ 4.70
[15]; source organism: Limestone Canyon virus
  pKd: ≤ 4.70
[32]
  pKd: ≤ 4.70
[33]
  pKd: 7.07
[34]
  pKd: 6.60
[35]
  pKd: ≤ 4.70
[36]
  pKd: ≤ 4.70
[37]
  pKd: ≤ 4.70
[38]
  pKd: ≤ 4.70
[39]
  pKd: ≤ 4.70
[40]
  pKd: ≤ 4.70
[41]
  pKd: ≤ 4.70
[42]
  pKd: ≤ 4.70
[43]
  pKd: ≤ 4.70
[6]; [48]
  pKd: ≤ 4.70
[7]; [48]
  pKd: ≤ 4.70
[9]; [48]
  pKd: ≤ 4.70
[10]; [48]
  pKd: ≤ 4.70
[11]; [48]
  pKd: ≤ 4.70

## KVIDIDLER
[1]; source organism: Mycobacterium tuberculosis
  pKd: 7.86
[2]; source organism: Mycobacterium tuberculosis C
  pKd: 7.72

## LMYILGTYG
[21]
  pKd: 5.43
[23]
  pKd: ≤ 4.63
[26]
  pKd: 6.02
[27]
  pKd: 7.21
[28]
  pKd: 6.90

## LSTTRFQSM
[21]
  pKd: 5.97
[23]
  pKd: 5.01
[26]
  pKd: 5.40
[27]
  pKd: 5.24
[28]
  pKd: 5.60

## SSMVNGVVR
[1]; [49]
  pKd: 7.58
[2]; [49]
  pKd: 7.74

## VLWDTPSPK
[1]; [50]
  pKd: 8.35
[2]; [50]
  pKd: 7.47

## WFSSGLWPF
[3]; source organism: Nostoc punctiforme PCC 73102
  pKd: 8.41
[44]
  pKd: ≤ 4.70
